Residue numbers refer to the chain shown, from its start. In names and notes the source's numbering stands.
B1: C05 V110P (antibody, V domains shown)
VH: QVQLQESGGGLVQPGESLRLSCVGSGSSFGESTLSYYAVSWVRQAPGKGLEWLSIINAGGGDIDYADSVEGRFTISRDNSKETLYLQMTNLRVEDTGVYYCAKHMSMQQVPSAGWERADLVGDAFDVWGQGTMVTVSS
VL: DIQLTQSPSSLSASVGDRVTLTCQASQDIRKFLNWYQQKPGKGPKLLIYDASNLQRGVPSRFSGGGSGTDFTLIISSLQPEDVGTYYCQQYDGLPFTFGGGTKVVIK
B2: C05 V110P-A117E (antibody, V domains shown)
VH: B1 VH with A118E
VL: B1 VL
B3: C05 A117E (antibody, V domains shown)
VH: B1 VH with P111V, A118E
VL: B1 VL

Columns and labels:
[1] = biological target: HA of A/Thailand/CU44/2006 (Influenza A virus A/Thailand/CU44/2006 …, UniProt A7LI25, strain); experiment: ELISA
[2] = biological target: HA of A/Solomon Islands/03/2006 (Influenza A virus A/Solomon …, UniProt A7Y8I1, strain); experiment: ELISA

Binder	binding result [1]	binding result [2]
B1	binds	binds
B2	binds	binds
B3	binds	binds
